# Assay results: PMC12374970, “NSUN2 facilitates DICER cleavage of DNA damage-associated R-loops to promote repair” (Nature Communications, 2025)
# B1: 6xHis-NSUN2 (recombinant wild-type NSUN2) (enzyme, human, UniProt Q08J23 1-767, looked up)
# chain: MGRRSRGRRLQQQQRPEDAEDGAEGGGKRGEAGWEGGYPEIVKENKLFEHYYQELKIVPEGEWGQFMDALREPLPATLRITGYKSHAKEILHCLKNKYFKELEDLEVDGQKVEVPQPLSWYPEELAWHTNLSRKILRKSPHLEKFHQFLVSETESGNISRQEAVSMIPPLLLNVRPHHKILDMCAAPGSKTTQLIEMLHADMNVPFPEGFVIANDVDNKRCYLLVHQAKRLSSPCIMVVNHDASSIPRLQIDVDGRKEILFYDRILCDVPCSGDGTMRKNIDVWKKWTTLNSLQLHGLQLRIATRGAEQLAEGGRMVYSTCSLNPIEDEAVIASLLEKSEGALELADVSNELPGLKWMPGITQWKVMTKDGQWFTDWDAVPHSRHTQIRPTMFPPKDPEKLQAMHLERCLRILPHHQNTGGFFVAVLVKKSSMPWNKRQPKLQGKSAETRESTQLSPADLTEGKPTDPSKLESPSFTGTGDTEIAHATEDLENNGSKKDGVCGPPPSKKMKLFGFKEDPFVFIPEDDPLFPPIEKFYALDPSFPRMNLLTRTTEGKKRQLYMVSKELRNVLLNNSEKMKVINTGIKVWCRNNSGEEFDCAFRLAQEGIYTLYPFINSRIITVSMEDVKILLTQENPFFRKLSSETYSQAKDLAKGSIVLKYEPDSANPDALQCPIVLCGWRGKASIRTFVPKNERLHYLRMMGLEVLGEKKKEGVILTNESAASTGQPDNDVTEGQRAGEPNSPDAEEANSPDVTAGCDPAGVHPPR
# notes: RNA m5C-methyltransferase NSUN2, human; The plasmid list is in Supplementary Data 1; also called NSUN2 wt; recombinant NSUN2; source: Sf9 (baculovirus, pFastBac1-NSUN2), purified (Ni-NTA)
# Target: T1, 6xHis-DICER (recombinant wild-type DICER) (human, UniProt Q9UPY3 1-1922)
# T1 construct: DICER (endoribonuclease Dicer), human; expressed from pFastBac1-hDICER; See Addgene 89144 and the plasmid list in Supplementary Data 1; also called hDICER; recombinant DICER; source: Sf9 (baculovirus, pFastBac1-hDICER), purified (Ni-NTA)
# Test: SPR; Biacore S200; 6xHis-NSUN2 (0.2 μg/mL) immobilised on CM5 chip at pH 4.0 by amine coupling; 2-fold serial dilutions of 6xHis-DICER (0.00117–0.6 µM) in 50 mM TrisHCl (pH 8), 50 mM NaCl, 5 mM MgCl2, 2 mM TCEP, 0.05% Tween20; equilibrium (steady-state) fit
# Conditions: both partners purified
# T1 sequence (Q9UPY3 whole entry): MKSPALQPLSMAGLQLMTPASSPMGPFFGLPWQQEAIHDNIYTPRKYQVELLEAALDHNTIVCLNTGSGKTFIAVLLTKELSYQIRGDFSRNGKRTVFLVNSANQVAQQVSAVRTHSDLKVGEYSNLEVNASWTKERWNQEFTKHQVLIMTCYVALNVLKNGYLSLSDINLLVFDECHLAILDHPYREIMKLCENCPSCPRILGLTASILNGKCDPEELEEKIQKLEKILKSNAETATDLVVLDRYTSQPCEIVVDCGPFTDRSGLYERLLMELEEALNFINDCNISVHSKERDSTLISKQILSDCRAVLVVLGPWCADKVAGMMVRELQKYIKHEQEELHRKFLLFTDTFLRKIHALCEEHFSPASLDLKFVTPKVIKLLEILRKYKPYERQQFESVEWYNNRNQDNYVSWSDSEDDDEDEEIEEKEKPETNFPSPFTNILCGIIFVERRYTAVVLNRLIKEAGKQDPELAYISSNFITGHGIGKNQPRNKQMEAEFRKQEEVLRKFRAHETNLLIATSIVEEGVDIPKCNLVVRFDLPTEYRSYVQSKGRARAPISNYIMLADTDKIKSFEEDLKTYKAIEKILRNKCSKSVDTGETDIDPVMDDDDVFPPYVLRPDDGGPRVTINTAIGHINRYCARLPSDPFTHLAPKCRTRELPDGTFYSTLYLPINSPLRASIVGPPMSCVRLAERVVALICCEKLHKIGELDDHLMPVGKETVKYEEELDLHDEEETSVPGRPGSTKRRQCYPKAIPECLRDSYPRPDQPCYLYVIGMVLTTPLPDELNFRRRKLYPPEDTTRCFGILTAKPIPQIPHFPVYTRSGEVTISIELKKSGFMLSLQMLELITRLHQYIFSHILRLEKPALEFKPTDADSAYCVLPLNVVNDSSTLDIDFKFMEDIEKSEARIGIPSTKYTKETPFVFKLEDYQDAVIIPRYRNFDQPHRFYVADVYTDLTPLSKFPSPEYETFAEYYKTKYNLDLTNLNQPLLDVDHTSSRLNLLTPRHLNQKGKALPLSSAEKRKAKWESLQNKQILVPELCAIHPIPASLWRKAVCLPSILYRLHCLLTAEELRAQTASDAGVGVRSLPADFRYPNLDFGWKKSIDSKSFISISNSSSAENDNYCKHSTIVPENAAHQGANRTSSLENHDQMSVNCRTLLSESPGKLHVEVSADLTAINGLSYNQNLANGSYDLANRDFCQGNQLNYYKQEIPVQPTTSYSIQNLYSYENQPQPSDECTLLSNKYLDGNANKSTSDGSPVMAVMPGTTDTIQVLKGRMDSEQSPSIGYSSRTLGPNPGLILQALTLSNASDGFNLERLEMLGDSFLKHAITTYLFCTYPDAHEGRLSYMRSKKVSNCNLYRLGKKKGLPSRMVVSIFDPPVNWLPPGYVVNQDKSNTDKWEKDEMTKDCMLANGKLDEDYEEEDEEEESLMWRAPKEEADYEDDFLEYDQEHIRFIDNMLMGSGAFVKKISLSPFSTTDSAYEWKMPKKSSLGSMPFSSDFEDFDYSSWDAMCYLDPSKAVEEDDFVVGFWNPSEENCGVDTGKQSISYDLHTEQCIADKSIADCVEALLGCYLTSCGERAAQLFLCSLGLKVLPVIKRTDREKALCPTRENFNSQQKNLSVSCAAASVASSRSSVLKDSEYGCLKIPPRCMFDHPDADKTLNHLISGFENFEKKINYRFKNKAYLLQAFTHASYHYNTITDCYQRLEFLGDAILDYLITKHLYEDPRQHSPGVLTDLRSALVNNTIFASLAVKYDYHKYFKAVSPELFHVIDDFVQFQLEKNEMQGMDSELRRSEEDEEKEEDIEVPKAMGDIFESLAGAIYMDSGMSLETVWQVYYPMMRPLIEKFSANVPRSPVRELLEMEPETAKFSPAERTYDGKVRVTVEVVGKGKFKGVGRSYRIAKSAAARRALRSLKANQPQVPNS
binder,measurement,value
B1,Kd,~500 nM
